Test [1] addresses T1, Soluble hFcγRIIB (R & D Systems) (human, UniProt P31994 46-217).
T1 construct: Bought reagent; also called hFcγRIIB fusion protein
T1 sequence (looked up): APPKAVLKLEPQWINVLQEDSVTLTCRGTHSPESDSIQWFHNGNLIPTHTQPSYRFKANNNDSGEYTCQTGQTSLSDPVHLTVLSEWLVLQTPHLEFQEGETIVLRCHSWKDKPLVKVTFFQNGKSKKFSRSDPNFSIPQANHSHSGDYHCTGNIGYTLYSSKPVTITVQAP
As to the kind of experiment: SPR, mAb immobilised, soluble hFcγRIIB injected. How it is done: (§1) A BIAcore T100 analyzer (GE Healthcare, UK) was used to determine the binding affinity of the hFcγRIIB mAb, as described elsewhere.²⁵ mAb were immobilized onto a CM5 sensorchip (GE Healthcare, UK), using standard amine coupling according to the manufacturer's instructions. Soluble hFcγRIIB (0.16-100 nM; R & D Systems, UK) was injected for 5 minutes and dissociation monitored for 10 minutes. Background binding to the control flow cell was monitored and subtracted automatically. The KD values were calculated from the 1:1 binding model using the BIAcore T100 Evaluation software.

In test [2] the target is T1, Soluble hFcγRIIB (R & D Systems). As to the kind of experiment: SPR, mAb immobilised, soluble hFcγRIIB injected; column headed KD (1/s). The method, then:
as §1
Background: In SPR one partner is held on a chip, and binding of the other changes the refractive index at the surface.

For test [3] the target is unchanged. Description: SPR, mAb immobilised, soluble hFcγRIIB injected; column headed KA (1/MS). The method, then: as §1
Test [4] shares this target. As to the kind of experiment: SPR (Biacore T100), mAb immobilised on CM5, soluble hFcγRIIB injected, 1:1 model. The method, then: as §1
Test [5] concerns the target T2, human FcγRIIB on cells (human, UniProt P31994 43-310).
T2 construct: whole, on cells; also called hFcγRIIB; CD32B
T2 sequence (looked up): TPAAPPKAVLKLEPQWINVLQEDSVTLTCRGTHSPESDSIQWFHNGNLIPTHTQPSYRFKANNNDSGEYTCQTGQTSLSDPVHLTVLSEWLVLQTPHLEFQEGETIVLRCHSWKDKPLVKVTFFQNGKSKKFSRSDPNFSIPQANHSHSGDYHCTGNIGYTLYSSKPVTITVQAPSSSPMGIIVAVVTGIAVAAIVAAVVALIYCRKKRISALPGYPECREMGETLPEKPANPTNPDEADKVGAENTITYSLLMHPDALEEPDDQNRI
Description: inhibition of binding of IC to hFcγRIIB-transfected cells by the mAb [2/2) bottom].

Test [6] addresses T1, Soluble hFcγRIIB (R & D Systems). Description: SPR (Biacore T100), mAb immobilised on CM5, soluble hFcγRIIB injected, 1:1 model; column headed KD (1/s). The method, then:
as §1

Test [7] shares this target. As to the kind of experiment: SPR (Biacore T100), mAb immobilised on CM5, soluble hFcγRIIB injected, 1:1 model; column headed KA (1/MS). How it is done: as §1
Test [8] concerns the target T2, human FcγRIIB on cells. As to the kind of experiment: binding to hFcγRIIB-transfected cells, total fluorescence intensity against mAb concentration [2/2) bottom].
For test [9], the target named is T3, cynomolgus monkey FcγRIIB (cynomolgus monkey, UniProt A0A140HDP4 43-312).
T3 construct: whole, on cells; also called FcγRIIB in other species
T3 sequence: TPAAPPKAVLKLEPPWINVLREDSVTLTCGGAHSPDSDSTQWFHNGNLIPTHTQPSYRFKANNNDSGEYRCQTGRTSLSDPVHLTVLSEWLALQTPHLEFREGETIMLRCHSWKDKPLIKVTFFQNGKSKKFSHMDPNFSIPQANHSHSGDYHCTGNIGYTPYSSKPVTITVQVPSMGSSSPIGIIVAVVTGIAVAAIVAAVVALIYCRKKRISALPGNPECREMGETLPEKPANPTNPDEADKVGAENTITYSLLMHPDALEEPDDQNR
Description: IHC on frozen tissue sections.

A further test concerns the target T4, rat FcγRIIB (rat, UniProt A0A0G2K9R6 42-295).
T4 construct: also called FcγRIIB in other species
T4 sequence: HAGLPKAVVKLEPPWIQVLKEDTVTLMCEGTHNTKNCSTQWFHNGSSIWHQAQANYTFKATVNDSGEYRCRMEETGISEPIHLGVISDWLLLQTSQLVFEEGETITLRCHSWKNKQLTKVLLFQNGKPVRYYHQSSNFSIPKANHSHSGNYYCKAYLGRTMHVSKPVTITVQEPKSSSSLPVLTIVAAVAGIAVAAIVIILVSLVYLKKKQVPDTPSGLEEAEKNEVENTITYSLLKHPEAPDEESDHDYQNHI
Description: IHC on frozen tissue sections.

A further test has as its target T5, mouse FcγRIIB (mouse, UniProt P08101 30-330).
T5 construct: whole, on cells; also called mFcγRII; FcγRIIB in other species
T5 sequence (looked up): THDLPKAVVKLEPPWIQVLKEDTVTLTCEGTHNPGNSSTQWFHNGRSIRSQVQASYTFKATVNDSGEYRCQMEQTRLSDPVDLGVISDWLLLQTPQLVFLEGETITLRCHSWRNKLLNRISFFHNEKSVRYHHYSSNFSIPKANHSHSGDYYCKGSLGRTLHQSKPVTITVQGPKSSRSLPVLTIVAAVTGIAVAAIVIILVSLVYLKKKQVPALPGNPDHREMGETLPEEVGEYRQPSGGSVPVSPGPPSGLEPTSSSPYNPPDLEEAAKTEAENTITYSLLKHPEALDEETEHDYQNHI
Description: IHC on frozen tissue sections.

Test [10] concerns the target T6, human FcγRIIA on cells (human, UniProt P12318 34-317).
T6 construct: whole, on cells; also called hFcγRIIA; FcγRIIA^+ve CHO
T6 sequence (looked up): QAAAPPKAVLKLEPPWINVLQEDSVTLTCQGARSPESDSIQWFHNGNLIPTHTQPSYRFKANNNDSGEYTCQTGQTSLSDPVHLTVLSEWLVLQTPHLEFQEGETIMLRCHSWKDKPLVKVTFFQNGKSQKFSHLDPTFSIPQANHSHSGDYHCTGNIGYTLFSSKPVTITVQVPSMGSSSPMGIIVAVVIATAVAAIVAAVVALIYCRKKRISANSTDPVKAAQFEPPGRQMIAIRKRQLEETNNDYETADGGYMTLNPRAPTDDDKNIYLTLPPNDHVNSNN
Description: not specified (summary in the discussion).

For test [11], the target named is T6, human FcγRIIA on cells. As to the kind of experiment: binding to FcγRIIA-transfected CHO-k1 cells.
The target in test [12] is T1, Soluble hFcγRIIB (R & D Systems). As to the kind of experiment: SPR, mAb immobilised, soluble hFcγRIIB injected; Table 2 gives the same values for 6G08. How it is done: as §1
Test [13] has the same target. As to the kind of experiment: SPR, mAb immobilised, soluble hFcγRIIB injected; column headed KD (1/s); Table 2 gives the same values for 6G08. How it is done: as §1
Test [14] concerns the target T6, human FcγRIIA on cells. As to the kind of experiment: binding to FcγRIIA-transfected CHO-k1 cells. This is another data set of the same source.

Broadly, the Kd is the equilibrium constant for the complex coming apart. For orientation: koff means a measure of how fast the partners let go of each other. Usually kon stands for the second-order rate constant of association. A word on the EC50 (read off the curve): it is the concentration needed to bring the measured effect to its halfway point.

B1: 5C04 (antibody, human IgG1, V domains shown)
VH: EVQLLESGGGLVQPGGSLRLSCAASGFTFSNYGMHWVRQAPGKGLEWVAVISYDGSNKYYADSVKGRFTISRDNSKNTLYLQMNSLRAEDTAVYYCAREWRDAFDIWGQGTLVTVSS
VL: QSVLTQPPSASGTPGQRVTISCTGSSSNIGAGYDVHWYQQLPGTAPKLLIYSDNQRPSGVPDRFSGSKSGTSASLAISGLRSEDEADYYCAAWDDSLSGSWVFGGGTKLTVLG
notes: hFcγRIIB mAb, human IgG1 (WT); Only VH/VL tied to the clone; also called Antibody clone: 5C04
On to B1, for which the Kd in test [1] and in test [4] was 142 nM in each case. The koff in test [2] and in [6] was 0.0481 s⁻¹ throughout. Further, the kon in [3] and in [7] was 324000 M⁻¹ s⁻¹ in each case. Also, the “IC50 (read off the curve)” value with human FcγRIIB on cells [5] was around 0.6 nM. Moreover, in the test with human FcγRIIB on cells [8], the “EC50 (read off the curve)” value is around 0.4 nM.

B2: 6G11 (antibody, human IgG1, V domains shown)
VH: EVQLLESGGGLVQPGGSLRLSCAASGFTFSSYGMHWVRQAPGKGLEWMAVISYDGSNKYYADSVKGRFTISRDNSKNTLYLQMNSLRAEDTAVYYCARELYDAFDIWGQGTLVTVSS
VL: QSVLTQPPSASGTPGQRVTISCTGSSSNIGAGYDVHWYQQLPGTAPKLLIYADDHRPSGVPDRFSGSKSGTSASLAISGLRSEDEADYYCASWDDSQRAVIFGGGTKLTVLG
notes: Lead antagonistic hFcγRIIB mAb, human IgG1 (WT); Only VH/VL tied to the clone; also called Antibody clone: 6G11; WT 6G11
In the case of B2, the binding result (in test [9]; with rat FcγRIIB; with mouse FcγRIIB; with human FcγRIIA on cells [10]) was “no binding” in each case. Besides, the Kd in [1] and in test [4] was 26.4 nM in each case. Moreover, the koff in test [2] and in test [6] was 0.182 s⁻¹ in each case. The kon in test [3] and in [7] was 6.9e+06 M⁻¹ s⁻¹ each time.

B3: 5G08 (antibody, human IgG1, V domains shown)
VH: EVQLLESGGGLVQPGGSLRLSCAASGFTFNNYGMHWVRQAPGKGLEWVAVISYDGSNRYYADSVKGRFTMSRDNSKNTLYLQMNSLRAEDTAVYYCARDRWNGMDVWGQGTLVTVSS
VL: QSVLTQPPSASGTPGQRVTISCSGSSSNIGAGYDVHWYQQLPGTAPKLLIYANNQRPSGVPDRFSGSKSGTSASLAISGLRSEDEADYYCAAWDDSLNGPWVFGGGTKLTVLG
notes: hFcγRIIB mAb, human IgG1 (WT); Only VH/VL tied to the clone; also called Antibody clone: 5G08
Consider B3, for which the binding result in the test with human FcγRIIA on cells [11] is listed as “no binding”. The affinity in test [12], expressed as Kd, was 713 nM. For the same molecule, the koff in test [13] came to 0.337 s⁻¹.

B4: 5C05 (antibody, human IgG1, V domains shown)
VH: EVQLLESGGGLVQPGGSLRLSCAASGFTFSTYGMHWVRQAPGKGLEWVAVISYDGSNKYYADSVKGRFTISRDNSKNTLYLQMNSLRAEDTAVYYCARENFDAFDVWGQGTLVTVSS
VL: QSVLTQPPSASGTPGQRVTISCTGSSSNIGAGYDVHWYQQLPGTAPKLLIYSNSQRPSGVPDRFSGSKSGTSASLAISGLRSEDEADYYCAAWDDSLNGQVVFGGGTKLTVLG
notes: hFcγRIIB mAb, human IgG1 (WT); Only VH/VL tied to the clone; also called Antibody clone: 5C05
Turning to B4, in the test with human FcγRIIA on cells [14], the binding result was “no binding”. Moreover, the dissociation constant Kd in test [1] and in [4] was 2210 nM each time. The koff in [2] and in test [6] was 0.00177 s⁻¹ each time. The association rate constant (kon) in test [3] and in [7] was 802 M⁻¹ s⁻¹ in each case.

The values above are taken from US20170107293A1 (BIOINVENT INTERNATIONAL, published 2017).
